B1: tailless-CCL21 (ligand, human)
chain: SDGGAQDCCLKYSQRKIPAKVVRSYRKQEPSLGCSIPAILFLPRKRSQAELCADPKELWVQQLMQHLDKTPSPQKPAQG
B2: human chemokine CCL21 (full-length CCL21) (ligand, UniProt O00585 24-134, looked up)
chain: SDGGAQDCCLKYSQRKIPAKVVRSYRKQEPSLGCSIPAILFLPRKRSQAELCADPKELWVQQLMQHLDKTPSPQKPAQGCRKDRGASKTGKKGKGSKGCKRTERSQTPKGP

Legend:
[1] = molecular target: human CCR7, wild type, untagged (human) (UniProt P32248)
[2] = molecular target: CCR7 fused with the ProLink (PK) 1-tag (human) (UniProt P32248)
[3] = molecular target: human CCR7, wild type, untagged (human) (UniProt P32248); remark: listed apart in the source
[4] = molecular target: CCR7 Y312A (human) (UniProt P32248)
[5] = molecular target: human CCR7, wild type, untagged (human) (UniProt P32248); remark: listed apart in the source
[6] = molecular target: T1, human CCR7, wild type, untagged (human, UniProt P32248 25-378); experiment: cell-based or functional assay
T1 sequence (looked up): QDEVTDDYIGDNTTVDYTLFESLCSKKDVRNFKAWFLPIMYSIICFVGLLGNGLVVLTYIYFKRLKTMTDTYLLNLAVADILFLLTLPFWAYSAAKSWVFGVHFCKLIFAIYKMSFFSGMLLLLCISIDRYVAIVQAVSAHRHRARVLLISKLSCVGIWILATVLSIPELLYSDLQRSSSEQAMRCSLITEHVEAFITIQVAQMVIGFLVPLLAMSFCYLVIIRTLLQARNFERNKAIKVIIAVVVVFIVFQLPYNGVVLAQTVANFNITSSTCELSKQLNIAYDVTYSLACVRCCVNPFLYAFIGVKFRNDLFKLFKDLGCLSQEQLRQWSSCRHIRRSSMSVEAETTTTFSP

[7] = molecular target: T2, CCR7 K137A (human, UniProt P32248 25-378, K137A); experiment: cell-based or functional assay
T2 sequence (looked up): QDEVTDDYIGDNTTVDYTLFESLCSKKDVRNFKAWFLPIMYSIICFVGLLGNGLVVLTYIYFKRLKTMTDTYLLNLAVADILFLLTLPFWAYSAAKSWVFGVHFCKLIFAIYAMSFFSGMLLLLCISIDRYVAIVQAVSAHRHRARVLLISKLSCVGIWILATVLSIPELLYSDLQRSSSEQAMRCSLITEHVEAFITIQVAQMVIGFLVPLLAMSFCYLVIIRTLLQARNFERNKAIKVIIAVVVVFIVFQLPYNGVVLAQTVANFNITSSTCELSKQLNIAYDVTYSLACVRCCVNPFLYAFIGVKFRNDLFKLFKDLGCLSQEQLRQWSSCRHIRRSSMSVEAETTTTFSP

[8] = molecular target: T3, CCR7 E193A (human, UniProt P32248 25-378, E193A); experiment: cell-based or functional assay
T3 sequence (looked up): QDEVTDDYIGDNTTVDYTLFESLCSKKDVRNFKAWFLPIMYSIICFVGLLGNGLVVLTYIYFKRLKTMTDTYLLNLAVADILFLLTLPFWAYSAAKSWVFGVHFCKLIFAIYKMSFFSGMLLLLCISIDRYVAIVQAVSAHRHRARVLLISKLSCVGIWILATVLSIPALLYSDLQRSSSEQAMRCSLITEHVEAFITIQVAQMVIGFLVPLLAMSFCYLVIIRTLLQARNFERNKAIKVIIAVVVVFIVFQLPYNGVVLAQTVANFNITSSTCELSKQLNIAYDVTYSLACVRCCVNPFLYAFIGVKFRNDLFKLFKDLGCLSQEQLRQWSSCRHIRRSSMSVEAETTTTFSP

[9] = molecular target: T4, CCR7 F133A (human, UniProt P32248 25-378, F133A); experiment: cell-based or functional assay
T4 sequence (looked up): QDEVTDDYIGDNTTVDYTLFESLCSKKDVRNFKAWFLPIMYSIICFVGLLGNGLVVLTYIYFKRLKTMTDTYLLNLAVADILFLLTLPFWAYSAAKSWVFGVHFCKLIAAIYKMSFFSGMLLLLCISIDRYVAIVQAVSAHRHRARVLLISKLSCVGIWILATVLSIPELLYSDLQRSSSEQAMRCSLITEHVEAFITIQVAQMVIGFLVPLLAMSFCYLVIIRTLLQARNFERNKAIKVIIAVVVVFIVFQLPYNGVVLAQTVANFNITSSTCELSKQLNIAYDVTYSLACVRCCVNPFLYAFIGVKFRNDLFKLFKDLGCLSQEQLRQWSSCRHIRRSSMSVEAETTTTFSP

[10] = molecular target: T1, human CCR7, wild type, untagged; experiment: cell-based or functional assay; remark: listed apart in the source
[11] = molecular target: T5, CCR7 fused with the ProLink (PK) 1-tag (human, UniProt P32248 25-378); experiment: cell-based or functional assay
T5 sequence (looked up): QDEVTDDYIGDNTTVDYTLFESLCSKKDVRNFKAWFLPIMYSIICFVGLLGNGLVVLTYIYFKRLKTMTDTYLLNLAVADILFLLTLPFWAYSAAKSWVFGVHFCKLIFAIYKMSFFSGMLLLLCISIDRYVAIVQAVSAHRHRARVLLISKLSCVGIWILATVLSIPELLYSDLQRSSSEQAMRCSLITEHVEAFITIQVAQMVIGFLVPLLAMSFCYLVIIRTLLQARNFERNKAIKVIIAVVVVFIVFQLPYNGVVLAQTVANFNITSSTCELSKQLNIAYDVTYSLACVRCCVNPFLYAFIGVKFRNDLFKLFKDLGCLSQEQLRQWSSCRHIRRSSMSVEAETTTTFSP

[12] = molecular target: T6, CCR7 Y312A (human, UniProt P32248 25-378, Y312A); experiment: cell-based or functional assay
T6 sequence (looked up): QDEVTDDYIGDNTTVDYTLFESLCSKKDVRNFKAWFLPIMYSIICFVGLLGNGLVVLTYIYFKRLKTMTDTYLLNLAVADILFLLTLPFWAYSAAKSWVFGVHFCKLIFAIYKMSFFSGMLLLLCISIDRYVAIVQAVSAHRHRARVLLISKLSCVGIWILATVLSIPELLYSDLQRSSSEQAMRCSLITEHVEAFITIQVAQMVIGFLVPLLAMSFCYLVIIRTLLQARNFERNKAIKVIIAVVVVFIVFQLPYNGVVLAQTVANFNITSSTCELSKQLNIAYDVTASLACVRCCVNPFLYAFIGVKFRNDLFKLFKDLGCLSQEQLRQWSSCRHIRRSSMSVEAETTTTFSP

| Molecule | EC50 of PI-turnover (Gαi signalling read through Gqi4myr) in HEK293 cells transfected with CCR7 [1] [nM] | EC50 of β-arrestin 2 recruitment to CCR7 (PathHunter, U2OS cells) [2] [nM] | EC50 of β-arrestin 2-dependent CCR7 internalization (U2OS cells, 3 h) [3] [nM] | EC50 of PI-turnover in HEK293 cells [4] [nM] | EC50 of PI-turnover in HEK293 cells (mutagenesis series, wild type) [5] [nM] | EC50 of PI-turnover (Gαi signalling read through Gqi4myr) in HEK293 cells transfected with CCR7 [6] [nM] | percentage activation of CCR7 (G-protein signaling) relative to CCL19 [7] | percentage activation of CCR7 (G-protein signaling) relative to CCL19 [8] | percentage activation of CCR7 (G-protein signaling) relative to CCL19 [9] | percentage activation of CCR7 (G-protein signaling) relative to CCL19 [10] | EC50 of PI-turnover in HEK293 cells (mutagenesis series, wild type) [6] [nM] | EC50 of β-arrestin 2-dependent CCR7 internalization (U2OS cells, 3 h) [6] [nM] | EC50 of β-arrestin 2 recruitment to CCR7 (PathHunter, U2OS cells) [11] [nM] | EC50 of PI-turnover in HEK293 cells [12] [nM] |
| --- | --- | --- | --- | --- | --- | --- | --- | --- | --- | --- | --- | --- | --- | --- |
| human chemokine CCL19 (from UniProt Q99731 22-98) (ligand) | 5 | 15 | 4.1 | 7.8 | 5.4 | – | – | – | – | – | – | – | – | – |
| B1 | – | – | – | – | – | ~142 | 16.7 % relative to CCL19 | 17.5 % relative to CCL19 | 27.1 % relative to CCL19 | 42.7 % relative to CCL19 | – | – | – | – |
| B2 | – | – | – | – | – | ~50 | 16 % relative to CCL19 | 19.3 % relative to CCL19 | 28.7 % relative to CCL19 | 57 % relative to CCL19 | ~156 | ~152 | ~263 | ~77 |

— publication PMC5145889, “Differential CCR7 Targeting in Dendritic Cells by Three Naturally Occurring CC-Chemokines” (Frontiers in Immunology, 2016)
